Source: the supplement of paper PMC10065799, “High-throughput profiling of sequence recognition by tyrosine kinases and SH2 domains using bacterial peptide display” (eLife, 2023)

Tests used:
c-Src SH2 = test: SH2 binding enrichment of the phosphorylated peptide, bacterial display (enrichment ratio); higher = better substrate or ligand; peptides without Tyr show the background
SHP2-C SH2 = test: as above
Grb2 SH2 = Grb2 SH2 (UniProt P62993); test: as above
EPHB1 = EPHB1 (UniProt P54762); test: phosphorylation enrichment, bacterial display (enrichment ratio); higher = better substrate or ligand; peptides without Tyr show the background
AncSZ = test: as above
MERTK = MERTK (UniProt Q12866); test: as above
EPHB2 = EPHB2 (UniProt P29323); test: as above
Fes = Fes (UniProt P07332); test: as above
Fer (mouse) = test: as above
FGFR1 = FGFR1 (UniProt P11362); test: as above
Hck = Hck (UniProt P08631); test: as above
Fyn = Fyn (UniProt P06241); test: as above
FGFR3 = FGFR3 (UniProt P22607); test: as above
c-Src = test: as above
c-Abl (mouse) = test: as above
Jak2 = Jak2 (UniProt O60674); test: as above
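Wherever SH2 binding enrichment of the phosphorylated peptide, bacterial display is given: peptide library displayed on the E. coli surface as eCPX fusions, selected cells deep-sequenced, score is each peptide's frequency after selection divided by its frequency in the input.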
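Wherever phosphorylation enrichment, bacterial display is given: 11-residue human phosphosite peptides and single-mutation variants displayed on the E. coli surface, counted by deep sequencing, each peptide's frequency after selection divided by its frequency in the unselected input library; frequency after pTyr selection over input frequency; kinase dosed for 20-30% of maximal phosphorylation in three min.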

Chain of Jak2 (O60674 whole entry, looked up, the tested form may be a part): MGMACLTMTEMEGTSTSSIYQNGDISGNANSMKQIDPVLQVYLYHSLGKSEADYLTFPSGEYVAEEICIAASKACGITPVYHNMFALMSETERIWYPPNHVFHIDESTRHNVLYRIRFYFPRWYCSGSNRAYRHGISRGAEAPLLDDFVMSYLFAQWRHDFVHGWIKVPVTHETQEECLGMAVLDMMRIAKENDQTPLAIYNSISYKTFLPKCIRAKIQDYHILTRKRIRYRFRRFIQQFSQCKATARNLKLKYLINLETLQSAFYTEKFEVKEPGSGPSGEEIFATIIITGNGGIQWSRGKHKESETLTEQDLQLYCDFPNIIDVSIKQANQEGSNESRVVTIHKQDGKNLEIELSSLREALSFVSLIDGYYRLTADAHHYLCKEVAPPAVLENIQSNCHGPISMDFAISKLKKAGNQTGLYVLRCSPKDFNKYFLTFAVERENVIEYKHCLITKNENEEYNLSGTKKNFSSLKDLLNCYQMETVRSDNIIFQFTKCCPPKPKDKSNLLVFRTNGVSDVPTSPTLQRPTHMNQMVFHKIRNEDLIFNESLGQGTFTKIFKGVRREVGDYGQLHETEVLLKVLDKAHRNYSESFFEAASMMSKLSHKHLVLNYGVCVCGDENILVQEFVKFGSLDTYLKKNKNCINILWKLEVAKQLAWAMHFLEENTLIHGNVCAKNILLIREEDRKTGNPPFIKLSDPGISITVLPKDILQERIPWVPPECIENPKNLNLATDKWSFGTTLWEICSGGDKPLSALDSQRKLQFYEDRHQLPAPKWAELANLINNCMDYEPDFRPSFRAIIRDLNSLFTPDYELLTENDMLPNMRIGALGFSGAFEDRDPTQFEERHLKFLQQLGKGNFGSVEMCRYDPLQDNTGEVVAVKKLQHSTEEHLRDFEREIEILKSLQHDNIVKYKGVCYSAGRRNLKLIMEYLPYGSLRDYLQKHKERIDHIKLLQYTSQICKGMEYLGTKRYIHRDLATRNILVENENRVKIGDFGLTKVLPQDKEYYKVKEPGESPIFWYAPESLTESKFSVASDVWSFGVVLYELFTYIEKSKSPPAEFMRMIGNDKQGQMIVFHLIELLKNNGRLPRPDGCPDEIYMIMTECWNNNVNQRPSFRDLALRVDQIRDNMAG
Chain of Hck (P08631 whole entry, looked up): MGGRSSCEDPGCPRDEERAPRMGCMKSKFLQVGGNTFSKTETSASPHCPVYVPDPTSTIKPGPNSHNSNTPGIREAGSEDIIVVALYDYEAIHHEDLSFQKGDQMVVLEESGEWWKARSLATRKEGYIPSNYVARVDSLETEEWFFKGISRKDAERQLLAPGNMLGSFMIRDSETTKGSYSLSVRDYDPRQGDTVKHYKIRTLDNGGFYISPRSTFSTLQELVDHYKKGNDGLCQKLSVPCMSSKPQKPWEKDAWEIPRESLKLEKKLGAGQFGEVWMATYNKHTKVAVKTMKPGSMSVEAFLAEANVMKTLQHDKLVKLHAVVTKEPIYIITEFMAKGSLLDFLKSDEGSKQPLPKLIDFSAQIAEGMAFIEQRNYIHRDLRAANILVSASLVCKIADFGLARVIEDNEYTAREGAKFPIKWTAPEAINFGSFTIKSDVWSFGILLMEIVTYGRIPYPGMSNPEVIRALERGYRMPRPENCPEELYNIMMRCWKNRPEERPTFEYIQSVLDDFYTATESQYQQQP
Chain of Fyn (P06241 whole entry, looked up): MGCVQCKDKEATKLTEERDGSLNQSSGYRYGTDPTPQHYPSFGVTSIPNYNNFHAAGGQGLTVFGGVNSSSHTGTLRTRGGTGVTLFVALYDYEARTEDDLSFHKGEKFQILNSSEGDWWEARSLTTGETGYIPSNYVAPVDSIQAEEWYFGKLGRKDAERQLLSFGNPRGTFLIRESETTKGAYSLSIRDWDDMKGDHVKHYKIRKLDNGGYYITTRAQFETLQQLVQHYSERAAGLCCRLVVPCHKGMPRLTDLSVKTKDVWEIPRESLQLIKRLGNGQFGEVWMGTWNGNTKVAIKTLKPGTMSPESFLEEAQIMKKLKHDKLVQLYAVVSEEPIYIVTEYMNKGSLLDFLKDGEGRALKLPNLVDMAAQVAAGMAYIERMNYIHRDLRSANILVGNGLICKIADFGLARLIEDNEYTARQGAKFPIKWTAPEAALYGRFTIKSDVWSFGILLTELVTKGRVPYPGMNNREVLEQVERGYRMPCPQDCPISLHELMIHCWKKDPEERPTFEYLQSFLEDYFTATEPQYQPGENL
Chain of Grb2 SH2 (P62993 whole entry, looked up): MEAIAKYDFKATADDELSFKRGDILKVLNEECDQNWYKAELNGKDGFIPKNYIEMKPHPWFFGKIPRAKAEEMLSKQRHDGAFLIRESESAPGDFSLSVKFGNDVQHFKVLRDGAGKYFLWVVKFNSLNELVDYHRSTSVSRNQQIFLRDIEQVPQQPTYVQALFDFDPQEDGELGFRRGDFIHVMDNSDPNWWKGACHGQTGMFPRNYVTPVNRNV
Chain of MERTK (Q12866 whole entry, looked up): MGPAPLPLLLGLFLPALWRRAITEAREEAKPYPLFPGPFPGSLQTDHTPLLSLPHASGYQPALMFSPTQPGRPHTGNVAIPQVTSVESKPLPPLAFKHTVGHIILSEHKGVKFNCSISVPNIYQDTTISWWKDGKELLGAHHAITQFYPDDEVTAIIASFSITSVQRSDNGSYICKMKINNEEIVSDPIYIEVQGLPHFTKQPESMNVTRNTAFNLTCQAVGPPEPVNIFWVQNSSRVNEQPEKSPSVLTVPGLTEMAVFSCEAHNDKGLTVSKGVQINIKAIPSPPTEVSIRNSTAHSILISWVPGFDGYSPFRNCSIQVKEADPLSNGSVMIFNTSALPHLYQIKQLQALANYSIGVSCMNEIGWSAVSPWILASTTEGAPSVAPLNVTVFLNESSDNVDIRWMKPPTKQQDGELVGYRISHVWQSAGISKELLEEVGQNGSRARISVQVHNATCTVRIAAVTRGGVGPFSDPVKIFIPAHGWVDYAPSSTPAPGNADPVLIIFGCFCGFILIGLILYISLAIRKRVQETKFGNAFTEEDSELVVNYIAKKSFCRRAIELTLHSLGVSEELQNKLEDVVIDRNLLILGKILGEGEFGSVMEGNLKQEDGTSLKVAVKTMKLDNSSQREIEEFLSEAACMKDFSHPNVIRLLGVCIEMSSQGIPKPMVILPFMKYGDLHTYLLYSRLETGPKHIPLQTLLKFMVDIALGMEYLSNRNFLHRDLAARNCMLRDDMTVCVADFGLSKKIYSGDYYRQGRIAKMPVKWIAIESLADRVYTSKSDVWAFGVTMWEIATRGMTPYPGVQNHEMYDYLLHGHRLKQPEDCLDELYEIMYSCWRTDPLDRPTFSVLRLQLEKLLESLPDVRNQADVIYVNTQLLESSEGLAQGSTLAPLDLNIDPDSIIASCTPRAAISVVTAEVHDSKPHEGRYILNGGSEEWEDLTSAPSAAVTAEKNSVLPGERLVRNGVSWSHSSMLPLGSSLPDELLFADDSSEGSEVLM
Chain of FGFR1 (P11362 whole entry, looked up): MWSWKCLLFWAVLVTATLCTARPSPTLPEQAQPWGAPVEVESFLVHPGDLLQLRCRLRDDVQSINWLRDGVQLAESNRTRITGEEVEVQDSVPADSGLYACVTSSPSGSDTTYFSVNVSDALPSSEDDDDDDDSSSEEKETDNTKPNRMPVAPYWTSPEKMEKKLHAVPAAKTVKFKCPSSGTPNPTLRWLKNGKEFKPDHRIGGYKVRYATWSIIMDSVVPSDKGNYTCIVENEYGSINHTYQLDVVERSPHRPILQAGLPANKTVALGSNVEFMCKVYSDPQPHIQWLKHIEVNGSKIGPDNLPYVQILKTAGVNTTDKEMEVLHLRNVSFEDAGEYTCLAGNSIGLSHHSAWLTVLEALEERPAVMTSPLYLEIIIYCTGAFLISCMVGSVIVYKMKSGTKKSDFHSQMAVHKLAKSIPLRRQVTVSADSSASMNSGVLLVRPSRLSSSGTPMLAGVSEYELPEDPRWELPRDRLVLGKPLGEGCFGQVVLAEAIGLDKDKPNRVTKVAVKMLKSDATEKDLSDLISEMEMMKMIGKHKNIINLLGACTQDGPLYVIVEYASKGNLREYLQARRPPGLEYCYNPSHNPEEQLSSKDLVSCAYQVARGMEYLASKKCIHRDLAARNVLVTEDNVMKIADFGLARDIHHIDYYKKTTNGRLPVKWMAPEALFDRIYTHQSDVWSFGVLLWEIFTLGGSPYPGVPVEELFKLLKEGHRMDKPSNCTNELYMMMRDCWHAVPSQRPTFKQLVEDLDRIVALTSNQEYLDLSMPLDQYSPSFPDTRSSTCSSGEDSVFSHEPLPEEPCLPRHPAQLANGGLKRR
Chain of Fes (P07332 whole entry, looked up): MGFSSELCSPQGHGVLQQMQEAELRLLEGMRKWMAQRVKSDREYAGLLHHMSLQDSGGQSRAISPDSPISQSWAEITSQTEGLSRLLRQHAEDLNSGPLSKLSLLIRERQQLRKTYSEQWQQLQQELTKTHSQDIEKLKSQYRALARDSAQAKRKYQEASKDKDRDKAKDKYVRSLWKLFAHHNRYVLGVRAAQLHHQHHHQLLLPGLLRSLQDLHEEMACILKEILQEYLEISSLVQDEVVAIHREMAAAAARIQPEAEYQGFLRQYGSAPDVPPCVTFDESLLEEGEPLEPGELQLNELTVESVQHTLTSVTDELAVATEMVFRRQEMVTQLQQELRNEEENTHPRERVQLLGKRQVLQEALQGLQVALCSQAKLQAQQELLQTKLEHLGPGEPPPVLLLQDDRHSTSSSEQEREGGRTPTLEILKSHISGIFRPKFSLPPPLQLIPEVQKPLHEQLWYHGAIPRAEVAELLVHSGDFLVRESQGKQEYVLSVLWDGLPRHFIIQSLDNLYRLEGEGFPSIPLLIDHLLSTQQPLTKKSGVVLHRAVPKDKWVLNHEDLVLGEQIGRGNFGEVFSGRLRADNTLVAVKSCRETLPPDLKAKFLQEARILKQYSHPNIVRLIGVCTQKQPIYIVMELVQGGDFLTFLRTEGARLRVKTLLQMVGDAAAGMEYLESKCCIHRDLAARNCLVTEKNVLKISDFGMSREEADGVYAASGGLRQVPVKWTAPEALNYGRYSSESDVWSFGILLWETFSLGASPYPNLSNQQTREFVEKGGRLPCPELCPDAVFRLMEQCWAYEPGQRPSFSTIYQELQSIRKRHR

Sequence	SH2 binding enrichment (c-Src SH2)	SH2 binding enrichment (SHP2-C SH2)	SH2 binding enrichment (Grb2 SH2)	phosphorylation enrichment (EPHB1)	phosphorylation enrichment (AncSZ)	phosphorylation enrichment (MERTK)	phosphorylation enrichment (EPHB2)	phosphorylation enrichment (Fes)	phosphorylation enrichment (Fer (mouse))	phosphorylation enrichment (FGFR1)	phosphorylation enrichment (Hck)	phosphorylation enrichment (Fyn)	phosphorylation enrichment (FGFR3)	phosphorylation enrichment (c-Src)	phosphorylation enrichment (c-Abl (mouse))	phosphorylation enrichment (Jak2)
ESMLRYEVYGG [STOX1_Y607]	0.929	0.554	0.819	0.758	1.29	0.506	0.685	1.42	0.523	0.528	0.712	0.666	0.702	0.905	0.744	1.3
ESSKAYERDLS [TTC37_Y1074_A1077D]	0.471	0.715	0.681	0.394	0.735	0.432	0.488	0.771	0.519	0.384	0.456	0.419	0.524	0.402	0.533	0.499
ETGEPCRLSPE [EIF4G1_Y311_Y311C]	0.664	0.618	0.866	0.62	1.13	0.536	0.674	1.31	0.55	0.612	0.689	0.531	0.846	0.553	1.01	1.15
EVTLTYATGIK [NFKB1_Y485_T489I]	0.413	0.646	0.916	0.475	0.896	0.404	0.424	1.15	0.473	0.421	0.555	0.477	0.634	0.508	0.66	1.06
EVTLTYATGTK [NFKB1_Y485]	0.418	0.528	0.701	0.526	0.805	0.371	0.526	1.11	0.425	0.404	0.514	0.496	0.643	0.409	0.774	0.75
EWLRGYLENGK [HLA-C_Y195_R194G]	0.43	1.06	0.871	0.51	0.844	0.394	0.683	0.921	0.436	0.481	0.483	0.464	0.601	0.481	0.97	0.777
EWQQIYTYDSG [JUP_Y20_T19I]	0.968	0.734	0.885	1.69	1.6	7.85	0.971	1.18	4.55	6.84	6.09	8.85	5.58	6.89	0.75	1
EWQQTYTYDSG [JUP_Y20]	1.01	0.775	0.813	0.554	1.12	0.817	0.585	1.02	0.513	1.17	0.783	1.28	0.99	3.88	0.657	0.898
EYLHKYKGFKI [SYNE1_Y6953_Q6951H]	0.527	0.63	0.861	0.509	0.903	0.453	0.509	1.01	0.405	0.403	0.437	0.461	0.57	0.501	0.996	1.01
FADIAYNFRHG [PAH_Y166_YF]	0.516	0.78	0.878	0.522	0.67	0.428	0.514	0.713	0.396	0.581	0.506	0.558	0.512	0.532	0.578	0.734
FADIAYNFRRG [PAH_Y166_H170R_YF]	0.541	0.822	0.799	0.637	0.966	0.396	0.411	0.649	0.39	0.43	0.429	0.409	0.539	0.45	0.462	0.602
FADTAYNFRHG [PAH_Y166_I164T_YF]	0.45	0.562	0.881	0.363	0.599	0.305	0.386	0.62	0.317	0.342	0.379	0.369	0.39	0.415	0.544	0.45
FAELVYTSFWH [ASS1_Y322_G324S]	0.624	0.612	0.907	2.99	2.31	7.38	3.44	1.89	8.86	5.31	7.37	8.65	4.28	6.82	14	2.11
FAKSVYWDNTL [NUP107_Y296_E298D_YF]	0.691	0.694	0.781	0.719	1	0.725	0.772	1.04	0.463	0.525	0.578	0.679	0.688	0.76	0.656	1.02
FASALYRQRRS [FGF11_Y162_YF]	0.516	0.576	0.79	0.513	0.689	0.565	0.622	0.592	0.991	0.668	0.546	0.577	0.531	0.577	0.563	0.468
FCRHNYGVVES [HLA-DRB1_Y112_YF]	1.86	1.05	1.19	1.32	0.569	0.44	2.62	0.843	0.555	0.587	0.526	0.503	0.661	0.446	0.545	0.632
FDNPVYQKTTE [LDLR_Y828]	0.578	1.09	0.993	0.605	0.737	0.453	0.497	0.864	0.424	0.5	0.933	0.759	0.498	0.531	0.438	0.549

Sequence	SH2 binding enrichment (c-Src SH2)	SH2 binding enrichment (SHP2-C SH2)	SH2 binding enrichment (Grb2 SH2)	phosphorylation enrichment (EPHB1)	phosphorylation enrichment (AncSZ)	phosphorylation enrichment (MERTK)	phosphorylation enrichment (EPHB2)	phosphorylation enrichment (Fes)	phosphorylation enrichment (Fer (mouse))	phosphorylation enrichment (FGFR1)	phosphorylation enrichment (Hck)	phosphorylation enrichment (Fyn)	phosphorylation enrichment (FGFR3)	phosphorylation enrichment (c-Src)	phosphorylation enrichment (c-Abl (mouse))	phosphorylation enrichment (Jak2)
FEGAIYRKDIG [GART_Y417_V421I]	0.563	0.71	0.903	0.442	0.868	0.451	0.464	0.769	0.446	0.478	0.506	0.524	0.743	0.477	0.515	0.617
FEGRSYSACTT [MMP9_Y241]	0.573	0.598	0.818	0.643	0.926	0.492	0.616	1.13	0.516	0.728	0.557	0.541	0.709	0.428	0.856	0.947
FEPWVYSLSYE [PRKDC_Y647_F649L]	0.674	0.568	0.812	0.749	1.6	1.6	0.767	1.49	1.77	0.602	4.72	7.16	0.893	6.59	0.707	1.33
FFSSEYHFVGG [CTSC_Y345_YF]	0.756	1.68	0.99	3.21	2.52	3.31	3.73	0.91	0.526	14.2	2.44	2	10.7	2.94	1.71	1.95
FGSSSYGGAGG [RPA2_Y14_YF]	0.394	0.58	0.743	0.431	0.415	0.329	0.401	0.559	0.334	0.437	0.374	0.45	0.436	0.43	0.677	0.544
FIPFRYPKEFQ [IDS_Y234_H229Y_YF]	0.534	0.613	0.876	0.316	0.705	0.409	0.494	0.883	0.323	0.465	0.469	0.469	0.516	0.565	0.595	0.548
FISLIYTNFEV [GSTP1_Y109_A114V_YF]	0.611	0.882	0.774	1.07	2.18	4.4	0.903	1.77	5.37	0.839	2.7	3.99	1.21	5.5	3.47	1.79
FKDVTYLKEEK [UBE3A_Y127_T129K]	0.642	0.465	0.823	0.466	0.891	0.38	0.447	1.28	0.49	0.481	0.442	0.514	0.728	0.523	0.809	0.986
FKEDPYLVVNP [MCM6_Y810_E806K_YF]	0.557	0.753	0.762	0.441	1.19	0.449	0.617	1.12	0.531	1.02	0.718	1.06	0.89	1.98	0.815	1.13
FKIFLYTLNDN [FN1_Y1975_YF]	0.428	0.588	0.741	0.624	1.3	0.366	0.791	1.35	0.548	0.523	0.494	0.584	0.717	0.43	0.877	1.06
FLAVGYHKPHI [IDS_Y225]	1.18	1.27	1.21	0.356	0.741	0.368	0.59	0.799	0.561	0.408	0.602	0.495	0.647	0.448	0.709	0.733
FLAVGYHKPYI [IDS_Y225_H229Y]	1.51	1.14	0.98	0.591	0.654	0.441	0.441	1.16	0.554	0.446	0.399	0.46	0.512	0.348	1.16	1.02
FMRGMYFRMTD [PLA2G6_Y541_K545T_YF]	0.914	1.43	0.941	0.698	1.09	0.438	0.563	1.2	0.506	0.496	0.513	0.434	0.663	0.481	0.715	1.39
FQKNIYSEEPR [LMNA_Y211_L215P]	0.578	0.462	0.809	0.438	0.773	1.73	0.443	0.871	0.454	0.478	0.763	1.02	0.582	1.54	0.477	0.717
FRKNIYNVKST [SYNE2_Y575_YF]	0.723	0.927	1.18	0.385	0.469	0.335	0.378	0.439	0.348	0.357	0.251	0.398	0.355	0.355	0.39	0.384
FRSSLYLLMET [MYO5C_Y633]	0.855	1.16	1.3	0.804	1.24	1.46	0.591	1.37	0.687	0.724	0.576	0.473	1.16	0.521	0.896	1.29
